Reference: article PMC11507401, “Functional and Physiological Characterization of Tyrosine Decarboxylases from Olea europaea L. Involved in the Synthesis of the Main Phenolics in Olive Fruit and Virgin Olive Oil” (International Journal of Molecular Sciences, 2024)

B1: OeTDC1 (Olea europaea subsp. europaea) (protein)
chain: MGSLQNQKPENGFTGAPIKPLDPEEFRRQGHMVIDFLADYYKNVEKYPVRSQVQPGYLRKRLPESAPHEPEPIEEILQDVQKDIVPGITHWQSPNYYAYFPSSGSIAGFLGEMLSTGFNVVGFNWMSSPAATELESIVMDWLGKMLNLPSSFLFSGGGGGVLQGTTCEGILCTLVAARDQMLNKIGRDNIGKLVVYGSDQTHSALQKAAQIAGIEPKNFRAVQTTKATAFGLTAEALRSTIESDVEAGLVPLFLCPTVGTTSSTAVDPIGPLCEVAKEYGMWVHVDAAYAGSACILPEYRHFLDGVENADSFSFNAHKWFLTTLDCCCLWVKNPSALVKALSTYPEYLRNKATDSNQVVDYKDWQITLSRRFRSLKLWLVLRSYGVANLRKFLRSHIQMAKNFEGLIGMDKRFEVVVPRNFATVCFRISPIEIGKNHIVSKEEVTNEFNSKLLESINEAGKIYVTHAVIGGVYVIRFCVGTTLTENRHVILAWKTIQEHANALLSMS

What was measured:
OeTDC2 = target: T1, OeTDC2 (Olea europaea, UniProt A0A8S0SA91); test: activity of enzyme extracted and purified with or without PLP; type: biochemical; settings: PLP in or omitted from lysis and purification buffers; tightly bound cofactor
T1 construct: gene OLEA9_A073377
T1 sequence (A0A8S0SA91 entry or part of it): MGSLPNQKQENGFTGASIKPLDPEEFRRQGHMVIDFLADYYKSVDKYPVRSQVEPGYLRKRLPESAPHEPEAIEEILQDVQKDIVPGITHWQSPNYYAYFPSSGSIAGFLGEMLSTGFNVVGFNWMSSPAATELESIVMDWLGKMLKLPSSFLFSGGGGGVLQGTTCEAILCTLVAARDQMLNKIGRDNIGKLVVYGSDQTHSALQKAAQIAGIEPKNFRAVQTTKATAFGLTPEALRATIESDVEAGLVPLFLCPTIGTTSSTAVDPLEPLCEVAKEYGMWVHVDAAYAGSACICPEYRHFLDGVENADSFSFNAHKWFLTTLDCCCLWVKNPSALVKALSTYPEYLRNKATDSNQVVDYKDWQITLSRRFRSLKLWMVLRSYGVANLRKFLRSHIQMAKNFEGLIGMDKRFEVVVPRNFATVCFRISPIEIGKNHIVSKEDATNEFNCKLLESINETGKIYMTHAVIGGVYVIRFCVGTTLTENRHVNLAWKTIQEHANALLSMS

OeTDC1 = target: T2, OeTDC1 (Olea europaea, UniProt A0AB74UCV8); test: as above; type: biochemical; settings: PLP in or omitted from lysis and purification buffers; tightly bound cofactor
T2 construct: gene TDC1

purified protein [1] = substrate: N[C@@H](Cc1ccc(O)c(O)c1)C(=O)O; test: purified protein; type: biochemical, Olea europaea; settings: 50 mM Tris-HCl pH 8.0, 40 °C, 200 µM PLP, 15 min
purified protein [2] = substrate: N[C@@H](Cc1ccc(O)cc1)C(=O)O; test: purified protein; type: biochemical, Olea europaea; settings: 50 mM Tris-HCl pH 8.0, 40 °C, 200 µM PLP, 15 min

Row | Molecule | activity of enzyme extracted and purified with or without PLP (OeTDC2) | activity of enzyme extracted and purified with or without PLP (OeTDC1) | Km (purified protein [1]) | Vmax (purified protein [1]) | kcat (purified protein [1]) | kcat/Km (purified protein [1]) | Km (purified protein [2]) | Vmax (purified protein [2]) | kcat (purified protein [2]) | kcat/Km (purified protein [2])
1 | Cc1ncc(COP(=O)(O)O)c(C=O)c1O [PLP] | it was observed that PLP binds tightly to the olive TDC proteins | it was observed that PLP binds tightly to the olive TDC proteins |  |  |  |  |  |  |  | 
2 | B1 |  |  | 340 µM | 4.08 µmol/min/mg | 3.82 s⁻¹ | 11300 M⁻¹ s⁻¹ | 1900 µM | 12.4 µmol/min/mg | 12.8 s⁻¹ | 6720 M⁻¹ s⁻¹
